# Source: IntAct's records for PubMed 34502139
# B1: Mitochondrial import receptor subunit TOM70 (Homo sapiens), O94826 (parent)
# chain: MAASKPVEAAVVAAAVPSSGSGVGGGGTAGPGTGGLPRWQLALAVGAPLLLGAGAIYLWSRQQRRREARGRGDASGLKRNSERKTPEGRASPAPGSGHPEGPGAHLDMNSLDRAQAAKNKGNKYFKAGKYEQAIQCYTEAISLCPTEKNVDLSTFYQNRAAAFEQLQKWKEVAQDCTKAVELNPKYVKALFRRAKAHEKLDNKKECLEDVTAVCILEGFQNQQSMLLADKVLKLLGKEKAKEKYKNREPLMPSPQFIKSYFSSFTDDIISQPMLKGEKSDEDKDKEGEALEVKENSGYLKAKQYMEEENYDKIISECSKEIDAEGKYMAEALLLRATFYLLIGNANAAKPDLDKVISLKEANVKLRANALIKRGSMYMQQQQPLLSTQDFNMAADIDPQNADVYHHRGQLKILLDQVEEAVADFDECIRLRPESALAQAQKCFALYRQAYTGNNSSQIQAAMKGFEEVIKKFPRCAEGYALYAQALTDQQQFGKADEMYDKCIDLEPDNATTYVHKGLLQLQWKQDLDRGLELISKAIEIDNKCDFAYETMGTIEVQRGNMEKAIDMFNKAINLAKSEMEMAHLYSLCDAAHAQTEVAKKYGLKPPTL
# Variants of: B1
# Details: with orf9b_sars2 orf9b
row,Variant,effect of a mutation on the interaction
1,E477A,decreasing interaction strength

# Variants of: B1
# Details: with orf9b_sars2 orf9b
# Remark: another data set of the same source
row,Variant,effect of a mutation on the interaction
1,R192A,decreasing interaction strength
